Numbering of substitutions follows the chain as printed. Blank lines part the entries; values can stand above or below the binder they belong to.
Key:
[1] = target: T1, full-length human HER2 receptor on cells (human, UniProt P04626 23-1255); test: flow cytometry on JIMT-1 cells, Alexa Fluor 647 goat anti-human IgG detection
T1 construct: also called HER2 on JIMT-1 cells; HER2 on BT474, MCF7, SKBR3 cells
Method: The cell surface binding of the HER2 antibodies to JIMT-1 cells were evaluated using a Macsquant flow cytometer (Miltenyi Biotec, Bergisch Gladbach, Germany). JIMT-1 cells, grown overnight to approximately 90% confluent cultures in DMEM media (ATCC, Manassas, Va.) with 10% FBS (Gibco®, Life Technologies, Grand Island, N.Y.), were released from the plate surface by treatment with Accutase cell detachment solution (Innovative Cell Technologies, San Diego, Calif.). The detached cells were washed once with ice cold media containing 6% goat serum and resuspended in the same media. 100,000 cells were aliquoted per well of a V-bottom, 96-well plate and incubated with a range of HER2 antibody concentrations (0.05-100 nM) in 150 μl DMEM with 6% goat serum on ice for 3 hours. […] The cells were washed once with ice cold PBS (Gibco®, Life Technologies, Cat.# 10010049) and suspended in 200 μl of ice cold PBS with 1% paraformaldehyde. The amount of fluorescence bound per cell was determined by running 5000 cells for each treatment on the flow cytometer. The median fluorescence value for each treatment was graphed, and the dissociation constant, Kd, was calculated for each antibody with Graphpad Prism software by non-linear regression using the single site, specific binding model.

[2] = target: T1, full-length human HER2 receptor on cells; test: flow cytometry competition on JIMT-1 cells: unlabeled XMT 1519 titrated against 30 nM Alexa Fluor 647-labeled XMT 1519
[3] = target: T1, full-length human HER2 receptor on cells; test: cell-based or functional assay
[4] = target: recombinant human HER2 extracellular domain (amino acids 23-652, Acro Biosystems Cat.# HE2-H5225) (human, UniProt P04626 23-652); test: ELISA, HER2 extracellular domain coated on plate, one site specific binding fit
Method: (§1) The affinity of the antibodies for recombinant human and cynomolgus monkey HER2 was determined by an ELISA assay. […] The wells were washed 4 times with TTBS (50 mM Tris-HCl, pH 7.4, 150 mM NaCl, and 0.05% Tween 20). The wells were blocked by incubation with 50 μl of TTBS containing 5% bovine serum albumin for 1 hr. […] Unbound test antibodies were removed with TTBS washes (4×). […] Unbound secondary antibody was removed by 4 TTBS washes. The HRP substrate, TMB Bethyl Laboratories#E102) was added to each well and incubated until a yellow color was visible. The reaction was stopped by the addition of 50 μl of 0.2 N sulfuric acid. […] Kd was determined by non-linear regression using the one site, specific binding model.

[5] = target: T2, recombinant cynomolgus monkey HER2 extracellular domain (amino acids 1-652, Sino Biological Cat.# 90295-CO8H) (cynomolgus monkey, UniProt A0A2K5WUT7 1-622); test: as above
T2 construct: range 1-652; Bought protein; the stated range 1-652 includes the signal peptide of the construct
Method: as §1

[6] = target: T1, full-length human HER2 receptor on cells; test: flow cytometry competition on JIMT-1 cells: unlabeled XMT 1518 titrated against 30 nM Alexa Fluor 647-labeled XMT 1519
[7] = target: T1, full-length human HER2 receptor on cells; test: cell-based or functional assay; remark: listed apart in the source

EC50 (read off the curve) [1]: ~1 nM | IC50 (read off the curve) [2]: ~5 nM | AKT phosphorylation in BT474 cells after 4 h antibody (western) [3]: 21 % of untreated cells | HER3 phosphorylation (Tyr 1289) in BT474 cells after 4 h antibody (western) [3]: 71 % of untreated cells
B1: XMT 1519 antibody (antibody, human IgG1, kappa, V domains shown)
VH: EVQLVESGGGLVQPGGSLRLSCAASGFTFSSYSMNWVRQAPGKGLEWVSYISSSSSTIYYADSVKGRFTISRDNAKNSLYLQMNSLRAEDTAVYYCARGGHGYFDLWGRGTLVTVSS
VL: not shown

Kd [4]: 0.05 nM | Kd [5]: 0.05 nM
B2: Example 16H, XMT 1519-(EG2-MI-(10 kDa PHF-BA-(AF-HPA-Ala))) (antibody, human IgG1, kappa, V domains shown)
VH: B1 VH
VL: not shown
modifications: polymer-drug scaffolds on cysteine thiols possible; positions not given; EG2-MI-(10 kDa PHF-BA-(AF-HPA-Ala)) polymer-drug scaffolds joined to cysteine thiols of the partially reduced antibody; positions not given; DAR about 11.8:1 to about 17.5:1

EC50 (read off the curve) [1]: ~1 nM | AKT phosphorylation in BT474 cells after 4 h antibody (western) [3]: 30 % of untreated cells | HER3 phosphorylation (Tyr 1289) in BT474 cells after 4 h antibody (western) [3]: 76 % of untreated cells
B3: XMT 1520 antibody (antibody, human IgG1, kappa, V domains shown)
VH: B1 VH with S31G, Y32R, S54D, S56R
VL: not shown

IC50 (read off the curve) [6]: ~3 nM | AKT phosphorylation in MCF7 cells after 4 h antibody [7]: 103 % of untreated cells
B4: XMT 1518 antibody (antibody, human IgG1, kappa, V domains shown)
VH: QVQLVESGGGVVQPGRSLRLSCAASGFTFSSYGMHWVRQAPGKGLEWVAGIWWDGSNEKYADSVKGRFTISRDNSKNTLYLQMNSLRAEDTAVYYCAKEAPYYAKDYMDVWGKGTTVTVSS
VL: EIVLTQSPGTLSLSPGERATLSCRASQSVSSDYLAWYQQKPGQAPRLLIYGASRRATGIPDRFSGSGSGTDFTLTISRLEPEDFAVYYCQQYVSYWTFGGGTKVEIKR

— patent US20170066830A1 (MERSANA THERAPEUTICS, published 2017)
